Results: the Human Domainome abundance scans (Beltran et al. 2025)
± gives the uncertainty stated by the source.

B1: POU domain, class 5, transcription factor 1, residues 134 to 212; numbered along this chain, Q01860 (parent)
chain: EESQDIKALQKELEQFAKLLKQKRITLGYTQADVGLTLGVLFGKVFSQTTICRFEALQLSFKNMCKLRPLLQKWVEEAD
B2: Intersectin-1, residues 1156 to 1213; numbered along this chain, Q15811 (parent)
chain: AVCQVIGMYDYTAQNDDELAFNKGQIINVLNKEDPDWWKGEVNGQVGLFPSNYVKLTT

Variants of: B1
Assay: abundance fitness (aPCA) (normalised: wild type 0, dead -1); higher = more abundant; growth selection in yeast, the domain comes from the species named
Conditions: Homo sapiens

Abundance fitness of substitutions, site by site:
I25: L 0.249 ± 0.16 | R -0.078 ± 0.24 | K -0.131 ± 0.47 | V 0.264 ± 0.16 | E -0.207 ± 0.38
S3: G 0.131 ± 0.17 | L 0.163 ± 0.38 | V 0.323 ± 0.24 | F -0.082 ± 0.27
A17: G 0.11 ± 0.13 | R -0.768 ± 0.32 | V -0.145 ± 0.42 | T 0.228 ± 0.38 | P -0.357 ± 0.45
Y29: W -0.472 ± 0.18 | S -0.717 ± 0.21 | P -0.407 ± 0.24 | I -0.771 ± 0.47 | D -0.422 ± 0.31 | V -0.216 ± 0.089 | R -0.383 ± 0.096 | A -0.41 ± 0.13 | G -0.56 ± 0.14 | M 0.18 ± 0.12 | F -0.761 ± 0.47 | L -0.055 ± 0.094 | H 0.148 ± 0.21 | Q 0.068 ± 0.19 | C -0.64 ± 0.32
F16: E -0.438 ± 0.39 | R -0.394 ± 0.15 | G -0.522 ± 0.23 | W -0.341 ± 0.3 | L -0.133 ± 0.16 | P -0.023 ± 0.34 | C -0.23 ± 0.21 | A -0.191 ± 0.32
L9: V 0.044 ± 0.076 | K 0.28 ± 0.11 | F -0.316 ± 0.29 | Y -0.164 ± 0.24 | H -0.215 ± 0.32 | T -0.171 ± 0.18 | S 0.136 ± 0.078 | P 0.195 ± 0.12 | Q 0.106 ± 0.12 | W -0.254 ± 0.087 | N -0.086 ± 0.22 | R -0.023 ± 0.067 | E 0.017 ± 0.089 | I -0.331 ± 0.4 | D -0.385 ± 0.2 | A -0.066 ± 0.088 | G -0.127 ± 0.07 | C -0.123 ± 0.13
K23: T -0.384 ± 0.27 | R 0.059 ± 0.12 | L -0.608 ± 0.37 | Q -0.256 ± 0.46 | A -0.608 ± 0.33
L27: H -0.387 ± 0.41 | P -0.274 ± 0.2 | C 0.039 ± 0.19 | Q -0.602 ± 0.24 | D -0.185 ± 0.25 | G -0.387 ± 0.1 | R -0.345 ± 0.1 | E -0.842 ± 0.28 | S -0.724 ± 0.25 | M -0.188 ± 0.19 | W -0.185 ± 0.11 | K -0.31 ± 0.19 | Y -0.358 ± 0.4 | N -0.429 ± 0.36 | A -0.648 ± 0.21 | I -0.051 ± 0.49 | V -0.588 ± 0.14
Q22: A -0.151 ± 0.3 | F 0.56 ± 0.4 | S 0.268 ± 0.14 | M -0.189 ± 0.45 | H 0.027 ± 0.29 | R -0.092 ± 0.2
Q15: W -0.442 ± 0.13 | C -0.218 ± 0.2 | L -0.259 ± 0.1 | T -0.329 ± 0.23 | M -0.184 ± 0.17 | H -0.27 ± 0.3 | E 0.07 ± 0.15 | G 0.008 ± 0.086 | R -0.181 ± 0.083 | D 0.089 ± 0.18 | A 0.127 ± 0.12 | S -0.094 ± 0.12 | K -0.631 ± 0.43
K11: A -0.201 ± 0.14 | Q 0.057 ± 0.17 | N 0.048 ± 0.28 | W -0.198 ± 0.13 | D 0.168 ± 0.35 | M 0.076 ± 0.14 | S 0.019 ± 0.12 | I 0.062 ± 0.33 | T -0.388 ± 0.3 | E -0.031 ± 0.11 | Y 0.067 ± 0.21 | C -0.369 ± 0.27 | G -0.168 ± 0.089 | V -0.21 ± 0.12 | L -0.153 ± 0.1 | P 0.23 ± 0.39
E1: M 0.273 ± 0.15 | G 0.053 ± 0.073 | S -0.58 ± 0.45 | V -0.45 ± 0.16 | Q 0.066 ± 0.31 | W -0.244 ± 0.33 | L -0.135 ± 0.23 | K -0.034 ± 0.24 | R 0.064 ± 0.14
L13: V -0.228 ± 0.14 | C -0.806 ± 0.31 | F -0.149 ± 0.14 | E -0.484 ± 0.39 | I 0.099 ± 0.27 | P -0.306 ± 0.45 | A -0.526 ± 0.22 | W -0.58 ± 0.19 | H -0.176 ± 0.19 | M 0.021 ± 0.17 | Y -0.527 ± 0.24 | Q -0.641 ± 0.34 | N -0.252 ± 0.19 | S -0.743 ± 0.25 | R -1.06 ± 0.35 | G -0.708 ± 0.23
L20: E -0.313 ± 0.24 | S -0.399 ± 0.25 | A -0.704 ± 0.27 | P -0.303 ± 0.24 | V -0.056 ± 0.12 | M -0.452 ± 0.39 | R -0.299 ± 0.14 | G -0.801 ± 0.23 | W -0.741 ± 0.38
T26: L 0.004 ± 0.25 | N 0.268 ± 0.45 | C -0.059 ± 0.46 | R 0.129 ± 0.14 | Q -0.123 ± 0.39 | V -0.212 ± 0.19 | K -0.414 ± 0.36 | M -0.256 ± 0.42 | I -0.313 ± 0.48 | A 0.202 ± 0.15 | E 0.04 ± 0.27 | S 0.329 ± 0.18 | G 0.071 ± 0.12
E2: G 0.211 ± 0.26
R24: V -0.068 ± 0.22 | Q -0.391 ± 0.44 | S -0.361 ± 0.18 | A -0.859 ± 0.47
K18: G -0.147 ± 0.12 | Q 0.029 ± 0.19 | F -0.268 ± 0.44 | L -0.091 ± 0.11 | S 0.192 ± 0.13 | T 0.074 ± 0.13 | R -0.222 ± 0.099 | M 0.052 ± 0.15 | V -0.466 ± 0.16 | A 0.021 ± 0.11 | W -0.19 ± 0.18 | E -0.415 ± 0.2 | H -0.523 ± 0.48
I6: W -0.351 ± 0.17 | A 0.005 ± 0.085 | C -0.417 ± 0.43 | P -0.015 ± 0.14 | G -0.122 ± 0.077 | M 0.1 ± 0.12 | D 0.122 ± 0.16 | S -0.054 ± 0.14 | T 0.195 ± 0.12 | F 0.052 ± 0.27 | Q 0.063 ± 0.14 | K 0.359 ± 0.12 | N -0.082 ± 0.23 | E -0.452 ± 0.17 | L -0.143 ± 0.1 | V -0.749 ± 0.2
A8: G -0.148 ± 0.14 | S 0.171 ± 0.21 | V 0.083 ± 0.25 | Q 0.182 ± 0.3 | P 0.697 ± 0.5 | L -0.318 ± 0.38 | C 0.222 ± 0.21 | E -0.08 ± 0.4 | T 0.429 ± 0.3
E12: Y -0.4 ± 0.31 | D -0.357 ± 0.47 | R -0.07 ± 0.071 | A -0.345 ± 0.14 | Q -0.185 ± 0.17 | F 0.341 ± 0.3 | S -0.094 ± 0.11 | T -0.405 ± 0.17 | H -0.051 ± 0.4 | G -0.35 ± 0.084 | K 0.254 ± 0.12 | P -0.473 ± 0.42 | L -0.312 ± 0.12 | M -0.38 ± 0.24 | I -0.112 ± 0.29 | W -0.226 ± 0.1 | V -0.065 ± 0.097
D5: N 0.092 ± 0.41 | A -0.126 ± 0.21 | S -0.191 ± 0.41 | G -0.331 ± 0.2 | E -0.343 ± 0.42 | T -0.141 ± 0.4 | V -0.018 ± 0.41 | P 0.062 ± 0.42 | C 0.057 ± 0.35
G28: L -0.76 ± 0.22 | S -0.839 ± 0.32 | Q -0.389 ± 0.2 | R -0.555 ± 0.13 | H 0.386 ± 0.21 | M -0.465 ± 0.24 | T -0.738 ± 0.37 | A -1.06 ± 0.3 | V -0.787 ± 0.19 | W -0.813 ± 0.33 | N -0.34 ± 0.42 | K -0.569 ± 0.34
Q4: F -0.059 ± 0.24 | G -0.064 ± 0.07 | N -0.253 ± 0.32 | H -0.051 ± 0.4 | D 0.046 ± 0.14 | L -0.067 ± 0.09 | S -0.258 ± 0.13 | T 0.005 ± 0.11 | P -0.135 ± 0.12 | Y 0.291 ± 0.19 | I -0.309 ± 0.24 | K -0.011 ± 0.16 | C -0.211 ± 0.22 | M -0.118 ± 0.18 | E -0.13 ± 0.1 | V -0.061 ± 0.088 | A -0.097 ± 0.081
K7: D 0.061 ± 0.098 | S -0.05 ± 0.063 | V -0.085 ± 0.065 | Q -0.142 ± 0.1 | L -0.073 ± 0.061 | M -0.319 ± 0.12 | H -0.193 ± 0.15 | N -0.022 ± 0.14 | P -0.124 ± 0.099 | Y -0.12 ± 0.14 | C -0.132 ± 0.086 | W -0.173 ± 0.074 | I -0.391 ± 0.22 | A -0.007 ± 0.062 | G -0.193 ± 0.055 | F -0.257 ± 0.13 | E -0.025 ± 0.075 | T -0.162 ± 0.1
E14: S -0.358 ± 0.13 | I 0.14 ± 0.15 | R 0.063 ± 0.081 | C -0.476 ± 0.24 | F -0.056 ± 0.14 | K 0.267 ± 0.14 | P -0.613 ± 0.29 | H -0.037 ± 0.16 | W -0.367 ± 0.15 | Y 0.076 ± 0.2 | L -0.168 ± 0.11 | A 0.143 ± 0.085 | T -0.352 ± 0.16 | G -0.033 ± 0.13 | Q -0.05 ± 0.14 | M -0.307 ± 0.22 | D -0.533 ± 0.39
K21: A -0.392 ± 0.19 | P -0.353 ± 0.3 | G -0.707 ± 0.18 | R -0.191 ± 0.12 | Q -0.2 ± 0.27 | S -0.189 ± 0.14 | V -0.373 ± 0.28
Q10: D -0.128 ± 0.18 | A -0.169 ± 0.12 | R 0.137 ± 0.063 | N -0.086 ± 0.24 | S -0.111 ± 0.097 | M -0.063 ± 0.16 | L -0.214 ± 0.11 | F 0.117 ± 0.32 | H -0.31 ± 0.49 | E -0.354 ± 0.16 | P -0.214 ± 0.17 | T -0.184 ± 0.18 | Y 0.042 ± 0.33 | C -0.477 ± 0.29 | W 0.305 ± 0.084 | G -0.239 ± 0.082 | I -0.373 ± 0.34
L19: T -0.49 ± 0.32 | Q 0.04 ± 0.36 | K 0.373 ± 0.26 | C 0.164 ± 0.22 | A -0.49 ± 0.35 | E -0.447 ± 0.32 | R -0.284 ± 0.15 | W -0.181 ± 0.16 | G -0.063 ± 0.13

Variants of: B2
Assay: as above
Conditions: Homo sapiens

Abundance fitness: each site, then its substitutions
T58: S -0.144 ± 0.16 | R 0.062 ± 0.26 | L -0.187 ± 0.41 | A -0.315 ± 0.16 | N -0.233 ± 0.26 | I -0.587 ± 0.4 | V -0.113 ± 0.32 | G 0.053 ± 0.22 | P -0.09 ± 0.2
